The record followed here is article PMC3841061.

The target in the test is P2Y1R-i3-YFP-long2/tail-HT (human) (UniProt P47900). Nature of the test: FRET or BRET.
Chain of UniProt P47900 (P47900 whole entry): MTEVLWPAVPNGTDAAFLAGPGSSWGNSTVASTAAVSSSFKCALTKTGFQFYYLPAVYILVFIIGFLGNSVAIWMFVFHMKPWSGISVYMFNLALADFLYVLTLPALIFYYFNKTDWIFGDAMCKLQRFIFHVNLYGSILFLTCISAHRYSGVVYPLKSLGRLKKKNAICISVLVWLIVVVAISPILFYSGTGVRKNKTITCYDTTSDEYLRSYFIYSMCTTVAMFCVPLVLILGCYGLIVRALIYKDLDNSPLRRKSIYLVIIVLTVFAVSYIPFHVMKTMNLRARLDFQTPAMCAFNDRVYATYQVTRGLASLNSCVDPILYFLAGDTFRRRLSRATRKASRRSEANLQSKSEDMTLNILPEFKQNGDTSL

Substance “Gαq-CFP (from UniProt P21279 1-359) (natural protein)” showed a ΔnF/ICFP by ADPβS 10 μmol/L (agonist-induced increase in FRET) of 0.014.
